According to patent US20040087777A1 (NEURALAB, published 2004):

What was measured:
Assay in all cases: rNET
[1] = molecular target: T1, … analog, Residue 8 = Q
T1 peptide: DAEFRHDQGY
Description: (§1) The rNET epitope map assay provides information about the contribution of individual residues within the epitope to the overall binding activity of the antibody. rNET analysis uses synthesized systematic single substituted peptide analogs. Binding of an antibody being tested is determined against native peptide (native antigen) and against 19 alternative “single substituted” peptides, each peptide being substituted at a first position with one of 19 non-native amino acids for that position. A profile is generated reflecting the effect of substitution at that position with the various non-native residues. Profiles are likewise generated at successive positions along the antigenic peptide. The combined profile, or epitope map, (reflecting substitution at each position with all 19 non-native residues) can then be compared to a map similarly generated for a second antibody.
(§2) Antibodies were tested for binding against the native Aβ peptide [sequence] […] Residues 1-8 were systematically substituted with each of the 19 non-native residues for that position.

[2] = molecular target: T2, … analog, Residue 3 = R
T2 peptide: DARFRHDSGY
Description: as §1, §2

[3] = molecular target: T3, … analog, Residue 7 = E
T3 peptide: DAEFRHESGY
Description: as §1, §2

[4] = molecular target: T4, … analog, Residue 1 = P
T4 peptide: PAEFRHDSGY
Description: as §1, §2

[5] = molecular target: T5, … analog, Residue 2 = L
T5 peptide: DLEFRHDSGY
Description: as §1, §2

[6] = molecular target: T6, … analog, Residue 8 = V
T6 peptide: DAEFRHDVGY
Description: as §1, §2

[7] = molecular target: T7, … analog, Residue 1 = E
T7 peptide: EAEFRHDSGY
Description: as §1, §2

[8] = molecular target: T8, … analog, Residue 2 = C
T8 peptide: DCEFRHDSGY
Description: as §1, §2

[9] = molecular target: T9, … analog, Residue 8 = P
T9 peptide: DAEFRHDPGY
Description: as §1, §2

[10] = molecular target: T10, … analog, Residue 2 = G
T10 peptide: DGEFRHDSGY
Description: as §1, §2

[11] = molecular target: T11, … analog, Residue 1 = A
T11 peptide: AAEFRHDSGY
Description: as §1, §2

[12] = molecular target: T12, … analog, Residue 8 = I
T12 peptide: DAEFRHDIGY
Description: as §1, §2

[13] = molecular target: T13, … analog, Residue 3 = F
T13 peptide: DAFFRHDSGY
Description: as §1, §2

[14] = molecular target: T14, … analog, Residue 8 = R
T14 peptide: DAEFRHDRGY
Description: as §1, §2

[15] = molecular target: T15, … analog, Residue 1 = S
T15 peptide: SAEFRHDSGY
Description: as §1, §2

[16] = molecular target: T16, … analog, Residue 3 = N
T16 peptide: DANFRHDSGY
Description: as §1, §2

[17] = molecular target: T17, … analog, Residue 1 = L
T17 peptide: LAEFRHDSGY
Description: as §1, §2

[18] = molecular target: T18, … analog, Residue 2 = H
T18 peptide: DHEFRHDSGY
Description: as §1, §2

[19] = molecular target: T19, … analog, Residue 3 = Y
T19 peptide: DAYFRHDSGY
Description: as §1, §2

[20] = molecular target: T20, … analog, Residue 1 = Q
T20 peptide: QAEFRHDSGY
Description: as §1, §2

[21] = molecular target: T21, … analog, Residue 3 = A
T21 peptide: DAAFRHDSGY
Description: as §1, §2

[22] = molecular target: T22, … analog, Residue 3 = C
T22 peptide: DACFRHDSGY
Description: as §1, §2

[23] = molecular target: T23, … analog, Residue 3 = I
T23 peptide: DAIFRHDSGY
Description: as §1, §2

[24] = molecular target: T24, … analog, Residue 8 = L
T24 peptide: DAEFRHDLGY
Description: as §1, §2

[25] = molecular target: T25, … analog, Residue 3 = H
T25 peptide: DAHFRHDSGY
Description: as §1, §2

[26] = molecular target: T26, … analog, Residue 3 = Q
T26 peptide: DAQFRHDSGY
Description: as §1, §2

[27] = molecular target: T27, … analog, Residue 8 = C
T27 peptide: DAEFRHDCGY
Description: as §1, §2

[28] = molecular target: T28, … analog, Residue 8 = H
T28 peptide: DAEFRHDHGY
Description: as §1, §2

[29] = molecular target: T29, … analog, Residue 2 = T
T29 peptide: DTEFRHDSGY
Description: as §1, §2

[30] = molecular target: T30, … analog, Residue 1 = F
T30 peptide: FAEFRHDSGY
Description: as §1, §2

[31] = molecular target: T31, … analog, Residue 2 = Y
T31 peptide: DYEFRHDSGY
Description: as §1, §2

[32] = molecular target: T32, … analog, Residue 1 = I
T32 peptide: IAEFRHDSGY
Description: as §1, §2

[33] = molecular target: T33, … analog, Residue 1 = G
T33 peptide: GAEFRHDSGY
Description: as §1, §2

[34] = molecular target: T34, … analog, Residue 1 = C
T34 peptide: CAEFRHDSGY
Description: as §1, §2

[35] = molecular target: T35, … analog, Residue 8 = Y
T35 peptide: DAEFRHDYGY
Description: as §1, §2

[36] = molecular target: T36, … analog, Residue 2 = W
T36 peptide: DWEFRHDSGY
Description: as §1, §2

[37] = molecular target: T37, … analog, Residue 3 = V
T37 peptide: DAVFRHDSGY
Description: as §1, §2

[38] = molecular target: T38, … analog, Residue 2 = R
T38 peptide: DREFRHDSGY
Description: as §1, §2

[39] = molecular target: T39, … analog, Residue 1 = W
T39 peptide: WAEFRHDSGY
Description: as §1, §2

[40] = molecular target: T40, … analog, Residue 2 = P
T40 peptide: DPEFRHDSGY
Description: as §1, §2

[41] = molecular target: T41, … analog, Residue 1 = N
T41 peptide: NAEFRHDSGY
Description: as §1, §2

[42] = molecular target: T42, … analog, Residue 2 = N
T42 peptide: DNEFRHDSGY
Description: as §1, §2

[43] = molecular target: T43, … analog, Residue 3 = T
T43 peptide: DATFRHDSGY
Description: as §1, §2

[44] = molecular target: T44, … analog, Residue 8 = F
T44 peptide: DAEFRHDFGY
Description: as §1, §2

[45] = molecular target: T45, … analog, Residue 2 = M
T45 peptide: DMEFRHDSGY
Description: as §1, §2

[46] = molecular target: T46, … analog, Residue 1 = K
T46 peptide: KAEFRHDSGY
Description: as §1, §2

[47] = molecular target: T47, … analog, Residue 3 = P
T47 peptide: DAPFRHDSGY
Description: as §1, §2

[48] = molecular target: T48, … analog, Residue 1 = M
T48 peptide: MAEFRHDSGY
Description: as §1, §2

[49] = molecular target: T49, … analog, Residue 2 = E
T49 peptide: DEEFRHDSGY
Description: as §1, §2

[50] = molecular target: T50, … analog, Residue 8 = T
T50 peptide: DAEFRHDTGY
Description: as §1, §2

[51] = molecular target: T51, … analog, Residue 1 = Y
T51 peptide: YAEFRHDSGY
Description: as §1, §2
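Also: antibody binding measured against single-substituted peptide analogs, each epitope position replaced by every one of 19 non-native amino acids, compared with binding to the native Aβ peptide.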

B1: murine monoclonal antibody 3D6 (antibody, mouse IgG2b, V domains shown)
VH: EVKLVESGGGLVKPGASLKLSCAASGFTFSNYGMSWVRQNSDKRLEWVASIRSGGGRTYYSDNVKGRFTISRENAKNTLYLQMSSLKSEDTALYYCVRYDHYSGSSDYWGQGTTVTVSS
VL: not shown
notes: also called mAb 3D6; m3D6
- OD [1]: 0.59 OD
- OD [2]: 0.015 OD
- OD [3]: 0.565 OD
- OD [4]: 0.069 OD
- OD [5]: 0.482 OD
- OD [6]: 0.578 OD
- OD [7]: 0.576 OD
- OD [8]: 0.553 OD
- OD [9]: 0.574 OD
- OD [10]: 0.527 OD
- OD [11]: 0.464 OD
- OD [12]: 0.568 OD
- OD [13]: 0.034 OD
- OD [14]: 0.589 OD
- OD [15]: 0.569 OD
- OD [16]: 0.024 OD
- OD [17]: 0.073 OD
- OD [18]: 0.534 OD
- OD [19]: 0.016 OD
- OD [20]: 0.441 OD
- OD [21]: 0.038 OD
- OD [22]: 0.222 OD
- OD [23]: 0.019 OD
- OD [24]: 0.57 OD
- OD [25]: 0.016 OD
- OD [26]: 0.153 OD
- OD [27]: 0.583 OD
- OD [28]: 0.559 OD
- OD [29]: 0.552 OD
- OD [30]: 0.034 OD
- OD [31]: 0.547 OD
- OD [32]: 0.048 OD
- OD [33]: 0.569 OD
- OD [34]: 0.45 OD
- OD [35]: 0.574 OD
- OD [36]: 0.553 OD
- OD [37]: 0.016 OD
- OD [38]: 0.562 OD
- OD [39]: 0.031 OD
- OD [40]: 0.445 OD
- OD [41]: 0.587 OD
- OD [42]: 0.525 OD
- OD [43]: 0.015 OD
- OD [44]: 0.586 OD
- OD [45]: 0.535 OD
- OD [46]: 0.033 OD
- OD [47]: 0.017 OD
- OD [48]: 0.039 OD
- OD [49]: 0.563 OD
- OD [50]: 0.586 OD
- OD [51]: 0.341 OD
